We go through two molecules from publication doi:10.1101/156513 (bioRxiv, 2017).

The term Kd denotes a measure of binding affinity in units of concentration.

In this assay the target is T1, GST-ZPSG-1 (UniProt Q07157 417-806).
T1 sequence: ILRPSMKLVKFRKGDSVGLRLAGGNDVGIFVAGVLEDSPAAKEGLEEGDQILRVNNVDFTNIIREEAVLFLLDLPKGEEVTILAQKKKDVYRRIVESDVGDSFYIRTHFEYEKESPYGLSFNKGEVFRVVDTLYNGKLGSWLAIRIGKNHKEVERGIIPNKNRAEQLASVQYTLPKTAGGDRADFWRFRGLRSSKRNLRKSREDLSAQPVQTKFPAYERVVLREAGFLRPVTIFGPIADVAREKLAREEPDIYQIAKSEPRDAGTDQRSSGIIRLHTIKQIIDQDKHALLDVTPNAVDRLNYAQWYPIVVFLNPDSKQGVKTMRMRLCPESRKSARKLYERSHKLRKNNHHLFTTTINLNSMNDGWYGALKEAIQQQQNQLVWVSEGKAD
In words: supernatant depletion assay.

B1: HA-DbpA (natural protein)
chain: not shown
In turn, B1 displayed a Kd of 100 nM.

B2: GFP-tagged C-terminal ZO-1 fragment (GFP-ZO-1-1619-1748) (domain or fragment)
chain: SAVEEDEDEDGHTVVATARGIFNSNGGVLSSIETGVSIIIPQGAIPEGVEQEIYFKVCRDNSILPPLDKEKGETLLSPLVMCGPHGLKFLKPVELRLPHCDPKTWQNKCLPGDPNYLVGANCVSVLIDHF
B2 came in with a Kd of 66 nM. Compared with the last molecule, the Kd is about 1.5-fold lower.
